Data on one substance can be found in patent US12559863B2, “Macrocyclic modulators of disease associated protein misfolding and aggregation” (RESQ BIOTECH, priority 2017, dated 2026).

What all share (assay type): biochemical
Assay [1] concerns the target T1, Aβ42 (Homo sapiens, UniProt P05067).
T1 construct: one of the secondary products yields a 42-amino-acid-long peptide (Aβ42); purchased Eurogentec, Belgium; host or cells: chemical synthesis
Briefly: Circular dichroism of Aβ42 with cyclic peptide. The conditions noted are these: 50 μM Aβ, 33° C., 30 d. As for the experimental part:
Synthetic Aβ40 and Aβ42 peptides were gently dissolved without vortexing in doubly deionized water to a final concentration of 100 μM. These solutions were then diluted by PBS addition (10 mM, pH 7.33) to achieve a final Aβ concentration of 50 μM.
Appropriate amounts of synthetic cyclic peptides were added to either 40 μM SOD1(A4V) or 50 μM Aβ solutions at the desired cyclic peptide:target protein molar ratio. SOD1(A4V) structural changes were monitored for 90 d at 25° C., under quiescent conditions. Aβ structural changes were monitored for 30 d at 33° C. under quiescent conditions. CD spectra in the range 190-260 nm were recorded on a JASCO J-715 spectropolarimeter (Jasco Co., Japan) using quartz cuvettes with 1 mm path length. Each reported spectrum is the average of three scans at a rate of 100 nm·min^−1 and a resolution of 0.5 nm.
For orientation: Circular dichroism is the unequal absorption of left and right circularly polarised light.

Assay [2] has as its target T2, SOD1(A4V) (Homo sapiens, UniProt P00441, A5V).
T2 construct: polyHis; made in house; host or cells: E. coli Origami 2(DE3)
Briefly: Differential scanning fluorimetry of SOD1(A4V) with SYPRO Orange. Conditions: 5:1 peptide to protein ratio. As to the method: FIGS. 4A-4F: (A) Chemical structure of the selected cyclic pentapeptide SOD1C5-4. (B) Circular dichroism spectra of SOD1(A4V) incubated with/without the selected cyclic pentapeptides SOD1C5-4, AβC5-34 or AβC5-116 at room temperature for 90 d (1:1 and 5:1 indicate cyclic peptide:SOD1(A4V) molar ratios). Representative spectra from n=2 independent experiments are presented. (C) Dynamic light scattering analysis of SOD1(A4V) incubated with/without the selected cyclic pentapeptides at room temperature for 60 d. Representative data from n=2 independent experiments are presented. (D) Thioflavin T (ThT) fluorescence of SOD1(A4V) incubated with/without the selected cyclic pentapeptides at room temperature for 90 d. Representative data from n=2 independent experiments are presented. (E) Filter retardation assay of SOD1(A4V) incubated with/without the selected cyclic pentapeptides at 37° C. for 25 d. Representative images from n=2 independent experiments performed in replica duplicates are presented. (F) Differential scanning fluorimetry analysis of isolated SOD1(A4V) in the presence or absence of the selected cyclic pentapeptide SOD1C5-4 (5:1 peptide to protein ratio) using the conformation-sensitive dye SYPRO Orange. Data corresponding to n=2 independent experiments each one performed in three replicates±s.e.m. are presented.

The target in assay [3] is T1, Aβ42. Briefly: Thioflavin T dye-binding assay of Aβ42. Conditions: 30-d aged CD solutions. As to the method: For Aβ ThT staining, 100 μL of the 30-d aged 50 μM CD solutions were diluted in PBS (10 mM, pH 7.33) to form a 25 μM Aβ solution with 200 μL final volume. 2.5 μL from a stock solution of ThT (Sigma-Aldrich, USA) in PBS (10 mM, pH 7.33) was added to the prepared Aβ solutions to achieve a final ThT concentration of 5 μM. The mixture was agitated adequately by pipetting and immediately thereafter, fluorescence was monitored with excitation at 440 nm (EM slit=2.5 nm, PMT Voltage 700 V, response 0.4 s) using a HITACHI F-2500 (Japan) spectrofluorometer.

Assay [4] concerns the target T2, SOD1(A4V). Briefly: Thioflavin T staining of SOD1(A4V). The conditions noted are these: 90 d at 25° C. As for the experimental part:
(§1) SOD1 or mutants thereof were overexpressed from the appropriate pET-SOD1 or PASK-SOD1 vectors in E. coli Origami 2(DE3) cells in LB medium containing 50 μg/mL kanamycin (for pET-SOD1) or 100 μg/mL ampicillin (for pASK-SOD1), 200 μM CuCl2, and 200 μM ZnCl2 by the addition of 0.01 mM IPTG (for pET-SOD1) or 0.2 μg/mL anhydrotetracycline (aTc) (for pASK-SOD1), either at 37° C. for 2-3 h or at 18° C. for about 16 h. Origami 2(DE3) cells were utilized in order to provide an oxidizing cytoplasmic environment in order to promote correct formation of disulfide bonds, which are required for proper SOD1 folding and function. Under these conditions, bacterially produced SOD1 is produced in dimeric and enzymatically active form, while it simultaneously co-exists with misfolded, soluble and insoluble SOD1 oligomeric/aggregated species (FIG. 3C). Thus, the acquired protein is found in a state that resembles the conditions encountered in human cells under stressful or pathogenic conditions. […]
40 μM SOD1(A4V) solutions, aged for 90 d at 25° C., with or without the selected synthetic peptides, were diluted to 10 μM with PBS. […] The mixture was agitated adequately by pipetting and immediately thereafter, fluorescence was monitored with excitation at 440 nm (EM slit=2.5 nm, PMT Voltage 700 V, response 0.4 s) using a HITACHI F-2500 (Japan) spectrofluorometer.

The target in assay [5] is T2, SOD1(A4V). Briefly: Circular dichroism of isolated SOD1(A4V) with cyclic peptide. The conditions noted are these: 40 μM SOD1(A4V), 25° C., 90 d. As to the method:
as §1, with “3C).” for “3C). Thus, the acquired protein is found in a state that resembles the conditions encountered in human cells under stressful or pathogenic conditions.”
Appropriate amounts of synthetic cyclic peptides were added to either 40 μM SOD1(A4V) or 50 μM Aβ solutions at the desired cyclic peptide:target protein molar ratio. SOD1(A4V) structural changes were monitored for 90 d at 25° C., under quiescent conditions. Aβ structural changes were monitored for 30 d at 33° C. under quiescent conditions. CD spectra in the range 190-260 nm were recorded on a JASCO J-715 spectropolarimeter (Jasco Co., Japan) using quartz cuvettes with 1 mm path length. […]

T2 sequence (P00441 whole entry A5V): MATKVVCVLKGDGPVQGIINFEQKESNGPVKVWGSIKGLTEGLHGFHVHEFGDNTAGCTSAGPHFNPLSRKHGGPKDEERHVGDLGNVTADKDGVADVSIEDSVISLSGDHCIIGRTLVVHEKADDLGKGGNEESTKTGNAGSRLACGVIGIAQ

Take cyclo-TWSVW (cyclic) [SOD1C5-4]: in assay [1], the “effect on aggregation process of Aβ42 (CD)” value is “did not have any effect”. Further, in assay [2], the “propensity of SOD1(A4V) to expose hydrophobic surfaces (SYPRO Orange, heat-induced denaturation)” value is “decrease the propensity of SOD1(A4V) to expose hydrophobic surfaces”. Moreover, the “extent of Aβ42 amyloid fibril formation (ThT)” value in assay [3] was “did not have any effect”. Further, in assay [4], the “formation of large, amyloid-like SOD1(A4V) aggregates by ThT staining” value is reported as “dramatically decreased”. Moreover, in assay [5], the “time-dependent conformational transition indicative of SOD1(A4V) aggregation” value was “significantly delayed”. In addition, the “interaction with SOD1(A4V) by CD spectroscopy” value in assay [5] (1:1 and 5:1 peptide:SOD1(A4V)) is “interacts with SOD1(A4V)”.
